# Measured values as given in publication doi:10.1101/2024.07.11.602925.
# pKd: −log10 of the molar value.
# Target: His-tagged PTB domain of RABGAP1
# Test: ITC
substance,measurement,value
"WT APP tail peptide, starting from the MQQ sequence at position 677 (from UniProt P05067-4 677-695)",pKd,4.21
same,stoichiometry N,1
